# Assay: label from the status in PepcDB records
row,Sequence,protein production
1,MSSTASSVFADETLLFEPATPIANAVPLIFAFPNEYSVGITSLGFQIVWATLAARSDLQVSRLFTDIAEPLPRQPELLGFSLSWELDYVNILAMLEQLGIPLRSRDRGDEHPLVFGGGPTLTANPEPFADFFDVILVGDGEVLLDAFIDAYQPLRDRPRAEKLRQLAQVPGLYIPALYEPIYEAADGAIATIQPIDNDIPVQIEKQTYRGNVLSASTVVTPRAAWESIYMVEVVRSCPEMCRFCLASYLTLPFRTASLEESLQPAIARGLTATQRIGLLGASVTQHPEFPALLDRLGQPEFTDVRLSVASVRTNTVTEKFASILAQRGTKSLTIAVESGSERLRQVINKKLAQAEITEAAVNAKAGGLQGLKLYGMAGVPTETEDDLLATAEMLKGLKKAAPGLRLSYGCSTFVPKAQTPFQWQGVSPKAEKRLQFLQKQLRPQGIEFRPESYSWSVIQALISRGDRRLSSLLERVRHYGESLGSYRRAFKELKGTLPPLDFYVFQDWEPEAPLPWQHLRGPLPVETLRKHRQQAFAIAAAGVGSK,failed
2,QKEKCFKCNKCEKTFSCSKYLTQHERIHTRGVK,not failed
3,MITFKEFVDYWFEAYASTAVKPSTQKRYRQLLKPALRAIGNKPLNKVKPLDIQNIYIALAGTQSNCTILKLHRLLHEIFKHAQMWEYISDNPVKKVVPPTPELEHHHHHH,not failed
4,MVKSDIIIVKNFHGVFCLNLVNEIFENKYKIIDILGKGGMSTVYLAKDIKLQKFWAIKEVSNNINDTSKLKVDLLAETNILKKLDHPALPRIVDIIKRDESLYIVMDFIDGVSLDKFIHKNGAINEKVVLDWAKQICDVLSYLHSQKPNPIIYRDMKPGNLMLTQNGKIKLIDFGIAREYKKEVSKDTTYIGTRGYAAPEQYGDCQSDARTDIYSFGVTLYHMLTGKGPNDPPFELKPVRELNSSLSEGIEHIIEKSTRQDPSLRYQNVDEMLYDIKNIHKLNSKYKKQLVKKYIKVAASACLFIFSVFLIISGVLGIKSDSANEYNNIIENGSKQNGDKAVEYFKQAVDKNSSNPKAYIKIIDTYLENGEYDQSIDFIETNLNNKQSELLKDNELLFKIGMAYFDDESYAKAYQYFNKIKGADISISEPLKYYKPVANALSKVDLQNKDKIVSSITQLEKYIDSRSDVDYKVESYITLAELYRDNPQIFPQNTDKEIGVLEKASSVSANKNNAILYGQLGQAYFDKASESKIEQDKYNFYLNKALDSYKNSIQMGSKISNTYCKLGLIYKYLGNTAESKNTFQKETQLFSDDYKGYMEMALLEYDSQQSAAPETRNYSEFVKYYNSTVSKKYNENDVDFMTLKQEYNDLKNQGVIK,failed
5,IPGPGFTAGAQGSCSLRCGAQDGLCSCHPTCSGLGTCCEDFLDYCLEILPSSGSMMGGKDFVVQHLKWTDP,not failed
6,DRTTYYSILGLTSNATSSEVHKSYLKLARLLHPDKTKSDKSEELFKAVVHAHSILTDEDQKLRYDRDLKIKGLHTYQPKK,failed
7,MQKLFLTFFYSGSVKKASGTFGTIAALIPAFFILKYLGINTLFLLSILIFVASIRVIDDYEKKTGIHDDKHIVIDEVAGVFLACAIAASVENSIVNFILAFVLFRLFDITKPSIIGKIDKKVKGGLGVMLDDMLAGLFAGLLSAVIYGFLLKFNLVFWDINLKDLF,failed
8,MGGEDDELKGLLGLPEEETELDNLTEFNTAHNKRISTLTIEEGNLDIQRPKRKRKNSRVTFSEDDEIINPEDVDPSVGRFRNMVQTAVVPVKKKRVEGPGSLGLEESGSRRMQNFAFSGGLYGGLPPTHSEAGSQPHGIHGTALIGGLPMPYPNLAPDVDLTPVVPSAVNMNPAPNPAVYNPEAVNEPKKKKYAKEAWPGKKPTPSLLI,not failed
9,MNNKLKTQAVEQLFQAILSLKDLDEAYDFFEDVCTINEILSLSQRFEVAKMLREHRTYLDIAEKTGASTATISRVNRSLNYGNDGYDRVFERLGMLEKESEDNK,not failed
10,VKAAQGLLLSVFHLYPKRKVEIILYNEKWAECFDEEKERLKLVFGPEIIAIHHIGSTSIPNMAAKPIIDMLIEVRSIEAVSQFDEQMKANGYTPKGENGIAGRRYFQKGGNKRTHHVHMYEQGNPAIERHLLFRDYLRAHPNIAKEYAVLKKQLAAQHPDSINQYIQGKDEWIKTAEENAKRWKKGRNNANGSIVCYNSENDENGGFTL,failed
11,MPLPKSLKYGDTIGIYSPSSPVTYTSPKRFERAKSYLLQKGFHILEGSLTGRYDYYRSGSIQERAKELNALIRNPNVSCIMSTIGGMNSNSLLPYIDYDAFQNNPKIMIGYSDATALLLGIYAKTGIPTFYGPALVPSFGEFEPFVDDTYKYFLETLLHDQALPYNIKQPLFWSDEFINWEEKTKEKELRPNNWISVTNGQATGRVIGGNLNTIQGIWGSPYMPCIQEGDILFIEDSSKDAATIERSFSFLKINGVFDKVSGIILGKHEQFDDCGTNRKPYEILLEVLQNQRIPLLADFDCCHTHPMITMPIGVQVKMDATNKTIHILEKWKI,not failed
12,MNTFPWLTTIILLPIVAALFIPIIPDKDGKTVRWYSLAVGLVDFALIVYAFYSGFDLSEPGLQLVESYTWLPQIDLKWSVGADGLSMPLIILTGFITTLATMAAWPVTLKPKLFYFLMLLMYGGQIAVFAVQDILLFFLVWELELVPVYLILSIWGGKKRLYAATKFILYTAGGSLFILLAGLTLAFYGDVNTFDMSAIAAKDIPVNLQLLLYAGFLIAYGVKLPIFPLHTWLPDAHGEATAPAHMLLAGILLKMGGYALLRMNVGMLPDAHAVFAPVLVILGVVNIIYAAFTSFAQRNLKRKIAYSSISHMGFVLIGLASFTDLGMSGAMLQMISHGLIGASLFFMVGATYDRTHTLMLDEMGGIGQKMKKGFAMWTACSLASLALPGMSGFVAELMVFVGFATSDAYNLVFRTIVVVLMGVGVILTPIYLLSMLREMLYGPENEELVNHTNLVDVEPREVFIIGCLLVPIIGIGFYPKLITQIYDPTINQLVQTARRSVPSLVQQANLSPLEVTALRPPTIGF,failed
13,RQKLLADFGEFALSNDNLADILTEACRLVGNALGTQRANVLEIEPSKRSLFVRAGVGLDDGIVGKLRLPMREIASERFSPDGSPLDIIHDVHTEPQYDLAAFMEVAGVVALVNVPILLPGRTLYGLLQVESSEPREFSQDDVEFLRTYSTILGPVIDRLNKVRALRDAEERFRLIVEAAR,failed
14,MKGKILDYSVQTNTAIIRTEDQKHYSFLGSAWREWIVPMPGMHVYFELDAQGEVTEVFIDVPEEDTPIAKPILTPVKAFITAPLMVDMQDKQHHTMLEKEAHYCMIDWVIKCFKNALDFKGRARRQEFWSFQFFYTVLGVGMLAFGHFLDLGHTLFIVSSIFMLLPALAVSVRRLHDINRSGWLLLINLVPIVGVLIVIFFFMTEEGDSRANAFGPPSK,failed
15,MIVSKRTFRSLYIPILIEQLFILIMGQADTLMLNSYSTDAVAASGMISQILMLITFLITIIHVGTNIRIVHLKEHQPSSISQEIYHNLLFNSIVSIVFTIVIGIAFELILRLFQVPQDIFKLTYQFGMIILSVLTLTTCHMYIGTVLRVMNHASSATRITIISNVTNIILNGIVLFIIPQYVGNPVLGVAVVTAFSRLLGCTLALIALIQIFRPFKHYFKLSWKKIYQVSTLGIPTAGEQISYNFAQTFTTAFIAMLGTQVIAAKSVSTVLSGLSFSCAMAFSAASQIYLGKFISRRRYRTLKKVVIKSIWFNITQSFMIMTCVFIGFIVCGRWITHDIQTYHLIIYYLVILFGLEPIRAINNLIVDLLNVTGDVRYPVTVSVVTTWLLLLPGSYLLGIHWRLGYTGIILVSIADEALRFIIMYLRWRNDRWQARMKQIGV,failed

# Reference: a protein production outcome set (Wang et al. 2014)
